# Test results as given in patent US20240207383.
# B1: PglS oligosaccharyltransferase (protein)
# chain: MNSIFKKIKNYTIVSGVFFLGSAFIIPNTSNLSSTLYKELIAVLGLLILLTVKSFDYKKILIPKNFYWFLFVIFIIFIQLIVGEIYFFQDFFFSISFLVILFLSFLLGFNERLNGDDLIVKKIAWIFIIVVQISFLIAINQKIEIVQNFFLFSSSYNGRSTANLGQPNQFSTLILITLFLLCYLREKNSLNNMVFNILSFCLIFANVMTQSRSAWISVILISLLYLLKFQKKIELRRVIFFNIVFWTLVYCVPLLFNLIFFQKNSYSTFDRLTMGSSRFEIWPQLLKAVFHKPFIGYGWGQTGVAQLETINKSSTKGEWFTYSHNLFLDLMLWNGFFIGLIISILILCFLIELYSSIKNKSDLFLFFCVVAFFVHCLLEYPFAYTYFLIPVGFLCGYISTQNIKNSISYFNLSKRKLTLFLGCCWLGYVAFWVEVLDISKKNEIYARQFLFSNHVKFYNIENYILDGFSKQLDFQYLDYCELKDKYQLLDFKKVAYRYPNASIVYKYYSISAEMKMDQKSANQIIRAYSVIKNQKIIKPKLKFCSIEY
# Target: ComPC1-CRM197 fusion protein
protein,measurement,value
B1,"glycosylation with CPS8, Western blot of periplasmic extracts (anti-His)",the ComPC1-CRM197 was also glycosylated by PglS
